Results taken from US9163048B2, “Multi-functional nucleic acid-based anti-cancer drug capable of targeting and therapy, method for preparing same and anti-cancer composition comprising same” (RESEARCH & BUSINESS FOUNDATION SUNGKYUNKWAN UNIVERSITY, priority 2011, dated 2015).

B1: linear nucleic acid (nucleic acid)
chain 1: GCTACGAGTAGGTACGGATCTGGCTGTACTGATGTGCCTGCGAC
chain 2: GTCGCAGGCACATCAGTACAGCCAGATCCGTACCTACTCG
modifications: chemistry not given here

Experiments:
[1] = test system: prostate cancer cells (LNCaP cell line); assay: Anticancer effect, acridine orange / propidium iodide staining, confocal microscope; format: cell-based; conditions: 2 hours treatment, 24 hours culture, NIR radiation 10 minutes, 10 μM contained doxorubicin
Procedure: In addition, after the cells were treated with 10 μM (concentration of the contained doxorubicin) of the multifunctional nucleic-acid-based anticancer drug for 2 hours, the medium was exchanged with a fresh RPMI 1640 medium to remove the multifunctional nucleic-acid-based anticancer drug remaining at an outside of the cells, and the cells were cultured for 24 hours. Afterward, the cells were irradiated with […] for 10 minutes, and stained with acridine orange and propidium iodide (PI). As a control group, instead of the multifunctional nucleic-acid-based anticancer drug, a test was performed using phosphate buffered saline, doxorubicin, gold nanoparticles, an A10 aptamer and an anticancer-drug-captured nucleic acid structure.
This means that the multifunctional nucleic-acid-based anticancer drug can kill cells more effectively by applying both doxorubicin (chemotherapy) and an exothermic effect (thermal treatment).

[2] = Capture of doxorubicin in linear nucleic acid, autofluorescence of unbound doxorubicin in supernatant; format: physicochemical; conditions: per 1 μM linear nucleic acid (SEQ ID NOs 1 and 2); room temperature, 24 hours
From the text: A supernatant was retrieved, and autofluorescence of the doxorubicin not binding to the linear nucleic acid was detected using a molecular device (SpectraMax M2 Microplate Reader).

| Molecule | cell death (PI staining, red fluorescence) [1] | maximum doxorubicin bound per 1 μM linear nucleic acid [2] [µM] |
| --- | --- | --- |
| COc1cccc2c1C(=O)c1c(O)c3c(c(O)c1C2=O)C[C@@](O)(C(=O)CO)C[C@@H]3O[C@H]1C[C@H](N)[C@H](O)[C@H](C)O1 [doxorubicin, reference compound] | dead cells stained with PI were observed |  |
| B1 | red fluorescence was hardly observed | 10 |
